Data from EP4692114A1, “CALCITONIN ANALOGUE, AND DERIVATIVE THEREOF AND USE THEREOF” (Hangzhou Sciwind Biosciences Co., Ltd., priority 2023, dated 2024).
Blank lines part the entries; values can stand above or below the molecule they belong to. *1 amine or outer side, *2 acyl side, *3 side chain or, on linkers, in order; H or OH if unused. Where a SMILES comes first, the peptide text is derived from it. Primed or numbered codes have the meaning given here. The star is where a group is joined. C22 diacid = O=C(O)CCCCCCCCCCCCCCCCCCCCC(=O)*; C20 diacid = O=C(O)CCCCCCCCCCCCCCCCCCC(=O)*; C18 diacid = O=C(O)CCCCCCCCCCCCCCCCC(=O)*; γGlu = O=C(O)[C@H](CCC(=O)[*:2])N[*:1]; Inp′ = not defined here; Trx′ = not defined here; Inp = O=C(O)C1CCNCC1

What was measured:
[1] = Heat accelerated stability assay under a neutral condition; assay type: physicochemical; conditions: pH about 7.4, 40°C
Procedure: The lyophilized powder (1 mg/mL) of calcitonin analogues or derivatives prepared in accordance with the method of Example 1 were mixed with sodium dihydrogen phosphate (1.42 mg/mL) and dissolved in ultrapure water in the indicated mass-volume ratios. After adjusting pH to about 7.4 with hydrochloric acid/sodium hydroxide, the solution was filtered into a sterilized vial in a clean bench using a 0.22 µm sterile filter. The vial was then capped and placed into the stability test chamber at 40°C. Detections were made on Days 7 (7d) and 26 (26d), and during the assay, changes in the characteristics and properties of the polypeptides were observed and recorded. The sample was then centrifuged for 3 min at 10000 rpm at 4°C, and the supernatant was transferred to a liquid phase sample vial for detecting the concentration and purity of the polypeptides using liquid phase chromatography described as below, wherein the concentration of the polypeptide = peak area/injection volume/extinction coefficient/60×flow rate, and the purity of the polypeptide = target peak area/total peak area× 100%.
Conditions of the reversed phase chromatography Flow rate: 1.0 ml/min; Autosampler temperature: 15°C; Column temperature: 25°C; Detection wavelengths: 280 nm and 214 nm; Mobile phase A: 100% H2O+0.05% TFA; Mobile phase B: 100% ACN; and Gradient of elution listed in Table 4: Table 4. Listing of the gradient of elution in the liquid phase chromatography
Results were shown below in Tables 5, 6, and 7. A difference of more than 5% in content as compared with the initial value was typically assumed (for example, as prescribed by the Chinese Pharmacopeia (2020 Edition)) to be a significant change. Within a reasonable margin of error, a decrease of less than 1% from the initial value to the detected content is denoted as "no change" below. Table 5. Changes in characteristics or properties in the heat accelerated stability assay

[2] = target: T1, human amylin receptor (AMY3) on CHO-K1/Gal5/AMY3 cells (human, UniProt P30988 25-474; O60896 24-148); experiment: cell-based or functional assay
T1 sequence (looked up) 1: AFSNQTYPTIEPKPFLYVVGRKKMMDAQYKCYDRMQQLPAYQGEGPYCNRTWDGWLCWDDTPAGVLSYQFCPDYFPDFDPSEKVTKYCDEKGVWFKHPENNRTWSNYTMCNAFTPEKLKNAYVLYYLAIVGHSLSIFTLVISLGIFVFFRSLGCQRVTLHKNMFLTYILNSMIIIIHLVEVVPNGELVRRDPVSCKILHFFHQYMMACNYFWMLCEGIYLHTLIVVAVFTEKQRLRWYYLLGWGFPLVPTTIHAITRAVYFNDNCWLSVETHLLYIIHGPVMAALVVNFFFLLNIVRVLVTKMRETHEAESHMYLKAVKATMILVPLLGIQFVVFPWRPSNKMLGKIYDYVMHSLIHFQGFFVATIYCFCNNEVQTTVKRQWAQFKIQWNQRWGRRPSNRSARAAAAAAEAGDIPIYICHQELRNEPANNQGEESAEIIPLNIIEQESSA
T1 sequence (looked up) 2: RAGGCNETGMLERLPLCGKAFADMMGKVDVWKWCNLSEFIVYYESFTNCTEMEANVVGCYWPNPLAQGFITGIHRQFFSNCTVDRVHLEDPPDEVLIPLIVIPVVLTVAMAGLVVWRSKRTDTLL

Molecule: CC(C)C[C@H](NC(=O)[C@H](CCCNC(=N)N)NC(=O)CNC(=O)[C@H](CC(C)C)NC(=O)[C@@H](NC(=O)[C@H](C)NC(=O)[C@@H](NC(=O)[C@H](CO)NC(=O)[C@H](CC(C)C)NC(=O)[C@H](CCC(N)=O)NC(=O)[C@H](CO)NC(=O)[C@H](C)NC(=O)C1CCN(C(=O)CCCCCCCCCCCCCCCCC(=O)O)CC1)[C@@H](C)O)C(C)C)C(=O)N[C@@H](CO)C(=O)N[C@@H](CC(=O)O)C(=O)N[C@@H](CCC(=O)O)C(=O)N[C@@H](CC(C)C)C(=O)N[C@@H](Cc1c[nH]cn1)C(=O)N[C@@H](CCCNC(=N)N)C(=O)N[C@@H](CC(C)C)C(=O)N[C@@H](CCC(N)=O)C(=O)N[C@@H](CC(=O)O)C(=O)N[C@@H](Cc1ccc(O)cc1)C(=O)N1CCC[C@H]1C(=O)N[C@@H](CCCNC(=N)N)C(=O)N[C@H](C(=O)N[C@@H](CC(=O)O)C(=O)N[C@H](C(=O)NCC(=O)N[C@@H](CO)C(=O)NCC(=O)N[C@@H](CO)C(=O)N1CCC[C@H]1C(N)=O)C(C)C)[C@@H](C)O [M48] ({C18 diacid-Inp}-ASQLSTAVLGRLSDELHRLQDYPRTDVGSGSP-NH2)
- Changes in characteristics or properties, 0d ([1]; 1 mg/mL, phosphate, 0d): Clear
- Changes in characteristics or properties, 7d ([1]; 1 mg/mL, phosphate, 7d): Clear
- Concentration change (7d-0d)/% ([1]; Day 7 vs Day 0, reversed phase chromatography): -1.678%
- Purity Change% (7d-0d) ([1]; purity from reversed phase chromatography-214 nm, Day 7 vs Day 0): -1%
- Purity Change% (26d-0d) ([1]; purity from reversed phase chromatography-214 nm, Day 26 vs Day 0): -3.9%

B4: calcitonin derivative M8 (peptide)
peptide: {C20 diacid-γGlu}-ASQLSTAVLGRLSDELHRLQDYPRTDVGSGSP-NH2
SMILES: CC(C)C[C@H](NC(=O)[C@H](CCCNC(=N)N)NC(=O)CNC(=O)[C@H](CC(C)C)NC(=O)[C@@H](NC(=O)[C@H](C)NC(=O)[C@@H](NC(=O)[C@H](CO)NC(=O)[C@H](CC(C)C)NC(=O)[C@H](CCC(N)=O)NC(=O)[C@H](CO)NC(=O)[C@H](C)NC(=O)CC[C@H](NC(=O)CCCCCCCCCCCCCCCCCCC(=O)O)C(=O)O)[C@@H](C)O)C(C)C)C(=O)N[C@@H](CO)C(=O)N[C@@H](CC(=O)O)C(=O)N[C@@H](CCC(=O)O)C(=O)N[C@@H](CC(C)C)C(=O)N[C@@H](Cc1c[nH]cn1)C(=O)N[C@@H](CCCNC(=N)N)C(=O)N[C@@H](CC(C)C)C(=O)N[C@@H](CCC(N)=O)C(=O)N[C@@H](CC(=O)O)C(=O)N[C@@H](Cc1ccc(O)cc1)C(=O)N1CCC[C@H]1C(=O)N[C@@H](CCCNC(=N)N)C(=O)N[C@H](C(=O)N[C@@H](CC(=O)O)C(=O)N[C@H](C(=O)NCC(=O)N[C@@H](CO)C(=O)NCC(=O)N[C@@H](CO)C(=O)N1CCC[C@H]1C(N)=O)C(C)C)[C@@H](C)O
- EC50/nM, CRE-luciferase in amylin receptor/CRE-luc CHO cells [2]: 0.017 nM

B5: calcitonin derivative M6 (peptide)
peptide: {C20 diacid-γGlu}-ASQLSTAVLGRLSQELHRLQDYPRTDVGSGSP-NH2
SMILES: CC(C)C[C@H](NC(=O)[C@H](CCCNC(=N)N)NC(=O)CNC(=O)[C@H](CC(C)C)NC(=O)[C@@H](NC(=O)[C@H](C)NC(=O)[C@@H](NC(=O)[C@H](CO)NC(=O)[C@H](CC(C)C)NC(=O)[C@H](CCC(N)=O)NC(=O)[C@H](CO)NC(=O)[C@H](C)NC(=O)CC[C@H](NC(=O)CCCCCCCCCCCCCCCCCCC(=O)O)C(=O)O)[C@@H](C)O)C(C)C)C(=O)N[C@@H](CO)C(=O)N[C@@H](CCC(N)=O)C(=O)N[C@@H](CCC(=O)O)C(=O)N[C@@H](CC(C)C)C(=O)N[C@@H](Cc1c[nH]cn1)C(=O)N[C@@H](CCCNC(=N)N)C(=O)N[C@@H](CC(C)C)C(=O)N[C@@H](CCC(N)=O)C(=O)N[C@@H](CC(=O)O)C(=O)N[C@@H](Cc1ccc(O)cc1)C(=O)N1CCC[C@H]1C(=O)N[C@@H](CCCNC(=N)N)C(=O)N[C@H](C(=O)N[C@@H](CC(=O)O)C(=O)N[C@H](C(=O)NCC(=O)N[C@@H](CO)C(=O)NCC(=O)N[C@@H](CO)C(=O)N1CCC[C@H]1C(N)=O)C(C)C)[C@@H](C)O
- EC50/nM, CRE-luciferase in amylin receptor/CRE-luc CHO cells [2]: 0.017 nM

Results, then the molecule that gave them:

- EC50/nM, CRE-luciferase in amylin receptor/CRE-luc CHO cells [2]: 0.022 nM
B1: calcitonin derivative M38 (peptide)
peptide: {C22 diacid-γGlu}-ASQLSTAVLGRLSDELHRLQDYPRTDVGSGSP-NH2
SMILES: CC(C)C[C@H](NC(=O)[C@H](CCCNC(=N)N)NC(=O)CNC(=O)[C@H](CC(C)C)NC(=O)[C@@H](NC(=O)[C@H](C)NC(=O)[C@@H](NC(=O)[C@H](CO)NC(=O)[C@H](CC(C)C)NC(=O)[C@H](CCC(N)=O)NC(=O)[C@H](CO)NC(=O)[C@H](C)NC(=O)CC[C@H](NC(=O)CCCCCCCCCCCCCCCCCCCCC(=O)O)C(=O)O)[C@@H](C)O)C(C)C)C(=O)N[C@@H](CO)C(=O)N[C@@H](CC(=O)O)C(=O)N[C@@H](CCC(=O)O)C(=O)N[C@@H](CC(C)C)C(=O)N[C@@H](Cc1c[nH]cn1)C(=O)N[C@@H](CCCNC(=N)N)C(=O)N[C@@H](CC(C)C)C(=O)N[C@@H](CCC(N)=O)C(=O)N[C@@H](CC(=O)O)C(=O)N[C@@H](Cc1ccc(O)cc1)C(=O)N1CCC[C@H]1C(=O)N[C@@H](CCCNC(=N)N)C(=O)N[C@H](C(=O)N[C@@H](CC(=O)O)C(=O)N[C@H](C(=O)NCC(=O)N[C@@H](CO)C(=O)NCC(=O)N[C@@H](CO)C(=O)N1CCC[C@H]1C(N)=O)C(C)C)[C@@H](C)O

- EC50/nM, CRE-luciferase in amylin receptor/CRE-luc CHO cells [2]: 0.016 nM
B2: calcitonin derivative M39 (peptide)
peptide: {C18 diacid-γGlu}-ASQLSTAVLGRLSDELHRLQDYPRTDVGSGSP-NH2
SMILES: CC(C)C[C@H](NC(=O)[C@H](CCCNC(=N)N)NC(=O)CNC(=O)[C@H](CC(C)C)NC(=O)[C@@H](NC(=O)[C@H](C)NC(=O)[C@@H](NC(=O)[C@H](CO)NC(=O)[C@H](CC(C)C)NC(=O)[C@H](CCC(N)=O)NC(=O)[C@H](CO)NC(=O)[C@H](C)NC(=O)CC[C@H](NC(=O)CCCCCCCCCCCCCCCCC(=O)O)C(=O)O)[C@@H](C)O)C(C)C)C(=O)N[C@@H](CO)C(=O)N[C@@H](CC(=O)O)C(=O)N[C@@H](CCC(=O)O)C(=O)N[C@@H](CC(C)C)C(=O)N[C@@H](Cc1c[nH]cn1)C(=O)N[C@@H](CCCNC(=N)N)C(=O)N[C@@H](CC(C)C)C(=O)N[C@@H](CCC(N)=O)C(=O)N[C@@H](CC(=O)O)C(=O)N[C@@H](Cc1ccc(O)cc1)C(=O)N1CCC[C@H]1C(=O)N[C@@H](CCCNC(=N)N)C(=O)N[C@H](C(=O)N[C@@H](CC(=O)O)C(=O)N[C@H](C(=O)NCC(=O)N[C@@H](CO)C(=O)NCC(=O)N[C@@H](CO)C(=O)N1CCC[C@H]1C(N)=O)C(C)C)[C@@H](C)O

- EC50/nM, CRE-luciferase in amylin receptor/CRE-luc CHO cells [2]: 0.017 nM
Molecule: {C20 diacid-Trx′}-ASQLSTAVLGRLSEELHRLQDYPRTDVGSGSP-NH2 (reading uncertain) [calcitonin derivative M55]

- EC50/nM, CRE-luciferase in amylin receptor/CRE-luc CHO cells [2]: 0.017 nM
Molecule: {C20 diacid-Inp′}-ASQLSTAVLGRLSEELHRLQDYPRTDVGSGSP-NH2 [calcitonin derivative M56]

- EC50/nM, CRE-luciferase in amylin receptor/CRE-luc CHO cells [2]: 0.017 nM
B3: calcitonin derivative M21 (peptide)
peptide: {C20 diacid-γGlu}-ASQLSTAVLGRLSQELHRLQDYPRTDVGSESP-NH2
SMILES: CC(C)C[C@H](NC(=O)[C@H](CCCNC(=N)N)NC(=O)CNC(=O)[C@H](CC(C)C)NC(=O)[C@@H](NC(=O)[C@H](C)NC(=O)[C@@H](NC(=O)[C@H](CO)NC(=O)[C@H](CC(C)C)NC(=O)[C@H](CCC(N)=O)NC(=O)[C@H](CO)NC(=O)[C@H](C)NC(=O)CC[C@H](NC(=O)CCCCCCCCCCCCCCCCCCC(=O)O)C(=O)O)[C@@H](C)O)C(C)C)C(=O)N[C@@H](CO)C(=O)N[C@@H](CCC(N)=O)C(=O)N[C@@H](CCC(=O)O)C(=O)N[C@@H](CC(C)C)C(=O)N[C@@H](Cc1c[nH]cn1)C(=O)N[C@@H](CCCNC(=N)N)C(=O)N[C@@H](CC(C)C)C(=O)N[C@@H](CCC(N)=O)C(=O)N[C@@H](CC(=O)O)C(=O)N[C@@H](Cc1ccc(O)cc1)C(=O)N1CCC[C@H]1C(=O)N[C@@H](CCCNC(=N)N)C(=O)N[C@H](C(=O)N[C@@H](CC(=O)O)C(=O)N[C@H](C(=O)NCC(=O)N[C@@H](CO)C(=O)N[C@@H](CCC(=O)O)C(=O)N[C@@H](CO)C(=O)N1CCC[C@H]1C(N)=O)C(C)C)[C@@H](C)O
